Assay results from PMC10267887.
Where “and” joins values, the source holds several entries; their conditions need not be identical. Equal entries are not always repeated.

Key:
[1] = molecular target: fibroblast growth factor 2 fused to GFP (FGF2-GFP), His-tagged (UniProt P09038); test: dual(+1)-FCS (brightness analysis by fluorescence correlation spectroscopy); as a1; FINAL state (t >= 240 min), (leaky to leaky) GUVs only
[2] = molecular target: fibroblast growth factor 2 fused to GFP (FGF2-GFP), His-tagged (UniProt P09038); test: dual(+1)-FCS (brightness analysis by fluorescence correlation spectroscopy); 200 nM FGF2-GFP on immobilised GUVs of plasma-membrane-like lipids with 2 mol % PI(4,5)P2, HEPES buffer (25 mM HEPES, 150 mM NaCl, pH 7.4); average oligomeric state per GUV; FINAL state (t >= 240 min), permeabilized (leaky) GUVs
[3] = molecular target: fibroblast growth factor 2 fused to GFP (FGF2-GFP), His-tagged (UniProt P09038); test: dual(+1)-FCS (brightness analysis by fluorescence correlation spectroscopy); as a1; INITIAL state (t = 60-120 min), leaky, (leaky to leaky) GUVs

- stoichiometry N [1]: < 10 m.u. and 4.21 m.u.
- stoichiometry N [2]: 2 and 6
- stoichiometry N [3]: 2 and 6
Substance: fibroblast growth factor 2 fused to GFP (FGF2-GFP), His-tagged (from UniProt P09038 1-288) (natural protein)
